Key:
wildtype feline IL-31 = assay: Indirect ELISA, binding to wildtype feline IL-31
In short: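 Wildtype or 15H05-epitope-mutant feline IL-31 coated directly onto plates as capture antigen (50 ng/well). Antibodies diluted in PBST, bound antibody detected with HRP-labelled secondary and TMB for 10 min at RT. Reaction stopped with 0.1 N HCl, then OD read at 450 nm.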

[1] = tested on: feline 11E12 mutant IL-31; assay: Biacore binding, single test concentration of antibody, feline 11E12 mutant IL-31 surface
feline 11E12 mutant IL-31, sequence (as listed by the source, stated change not applied): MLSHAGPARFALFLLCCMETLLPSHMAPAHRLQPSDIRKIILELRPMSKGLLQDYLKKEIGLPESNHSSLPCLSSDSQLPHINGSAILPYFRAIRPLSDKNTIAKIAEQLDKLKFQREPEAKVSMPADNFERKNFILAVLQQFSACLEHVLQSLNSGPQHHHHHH
Description: For the indirect ELISA, binding (ELISA OD) to wildtype feline IL-31 and a feline IL-31 15H05 mutant which had mutations in the monoclonal antibody 15H05 epitope region was assessed. To confirm binding, biacore analysis was performed using canine, feline, equine, human, the feline 15H05 mutant, and feline 11E12 mutant IL-31 proteins as surfaces and a single test concentration of antibody. The feline IL-31 11E12 mutant had mutations in the monoclonal antibody 11E12 epitope region.
For the indirect ELISA method, antibody binding to wildtype and feline IL-31 15H05 mutant proteins was assessed. […] In comparison, the 11E12 antibody bound to the wild-type feline IL-31 and its binding was not impacted by the mutations in the 15H05 epitope region as evidenced by the data in FIG. 4. To confirm binding, biacore analysis was performed using canine, feline, equine, human, feline 15H05 mutant, and feline 11E12 mutant IL-31 proteins as surfaces and a single test concentration of antibody. Similar to ELISA observations, all antibodies tested bound to wildtype feline IL-31. In agreement with the data described above in this section, mouse antibodies 11 E12 and 15H05 both bound to canine and feline IL-31 surfaces. […] From this group of nine fully canine antibodies, only ZIL1 and ZIL9 cross-reacted with equine IL-31. Of note, antibody 15H05 was the only one of all assayed herein that bound to canine, feline, and equine IL-31 indicating some level of epitope conservation across the three species. In contrast, none of the antibodies described herein bound to human IL-31. Additional biacore surfaces were used to verify ELISA observations showing differential binding of antibodies to wildtype feline IL-31 and two proteins with mutations in the 15H05 (15H05 mutant) or 11 E12 (11E12 mutant) epitopes. […] Differing results can be attributed to differences in the two assay methodologies.

feline IL-31 [2] = assay: Inhibition of feline IL-31 induced pSTAT3 signaling in canine DH-82 cells; format: cell-based; settings: feline IL-31, pSTAT3, canine DH82 cells (FIG. 3)
In short: (§1)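 DH-82 cells primed with canine IFN-γ 10 ng/mL for 24 h, FCWF4 with feline IFN-γ 125 ng/mL for 96 h, then serum-starved 2 h. mAb pre-incubated 1 h with 1 μg/mL canine or 0.2 μg/mL feline IL-31, cells stimulated 5 min; pSTAT3 by AlphaLISA SureFire, IC50 as half-maximal signalling reduction.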
Target sequence in this assay (as listed by the source): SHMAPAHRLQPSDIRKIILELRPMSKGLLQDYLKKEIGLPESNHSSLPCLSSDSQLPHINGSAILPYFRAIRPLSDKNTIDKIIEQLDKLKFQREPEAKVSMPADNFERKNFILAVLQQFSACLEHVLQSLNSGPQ

feline IL-31 [3] = assay: Competition binding assessment using Biacore, feline IL-31 surface; settings: sequential addition of 15H05 and 11E12, Biacore
Description: To further characterize the IL-31 epitopes bound by mAbs 15H05 and 11 E12, blocking experiments were performed using biacore where the surface containing the IL-31 protein was generated followed by sequential addition of antibodies. FIGS. 7A and 7B show the relative binding of each antibody to IL-31 following capture of 11E12 or 15H05. The columns labeled HBS-EP (assay buffer) indicate the maximum signal obtained from each antibody binding to the IL-31 surface alone without competition. […] The sensograms related to FIG. 7A show the disassociation kinetics of both antibodies are very slow on this newly formed biacore surface therefore no additional occupation of binding sites can occur with addition of the same antibody (data not shown).
Binding of additional antibody in the presence of the same antibody is a result of the increased off rate due to the poorer quality of the surface used. Increased off rates can be seen and compared to the KD values from newly formed feline IL-31 surfaces in FIG. 2.
Target sequence in this assay (as listed by the source): as the sequence (as listed by the source, stated change not applied) above, with A104D, A107I counted along it

feline IL-31 [4] = assay: Inhibition of feline IL-31 induced pSTAT3 signaling in feline FCWF4 macrophage-like cells; format: cell-based; settings: 0.2 μg/mL feline IL-31, pSTAT3, FCWF4 cells (FIG. 3)
In short: as §1

wildtype feline IL-31, sequence (as listed by the source): as the sequence (as listed by the source, stated change not applied) above, with A104D, A107I counted along it

B1: 15H05: mouse anti IL-31 monoclonal antibody, VH SEQ ID NO: 67, VL SEQ ID NO: 69 (antibody, listed as Mus musculus, V domains shown)
VH: QVQLQQSAAELARPGASVKMSCKTSGYTFTSYTIHWIKQRPGQGLEWIGNINPTSGYTENNQRFKDKTTLTVDRSSNTAYLQLHSLTSEDSAVYFCARWGFKYDGEWSFDVWGAGTTVTVSS
VL: DIQMNQSPSSLSASLGDTITVTCRASQGISIWLSWYQQKPGNIPKVLINKASNLHIGVPPRFSGSGSGTHFTLTITSLQPEDIATYYCLQSQTYPLTFGGGTKLEIN
binding to wildtype feline IL-31 (ELISA) (wildtype feline IL-31): capable of binding
binding to feline 11E12 mutant IL-31 (Biacore) [1]: retained binding
potency (IC50) against feline IL-31 in canine DH82 cells (feline IL-31 [2]): comparable
competition binding on feline IL-31 (feline IL-31 [3]): no overlap in the epitope recognized
potency (IC50) against feline IL-31 in feline FCWF4 cells (feline IL-31 [4]): slight increase in IC50

Reference: patent US11433139B2, “Peptide vaccines against interleukin-31” (Zoetis Services LLC, priority 2018, dated 2022)
